Among the data in paper PMC8091128 are ratio to parent values, retold here.

This experiment has as its target T1, α-catenin (cleaved from GST–α-catenin), P35221.
T1 chain: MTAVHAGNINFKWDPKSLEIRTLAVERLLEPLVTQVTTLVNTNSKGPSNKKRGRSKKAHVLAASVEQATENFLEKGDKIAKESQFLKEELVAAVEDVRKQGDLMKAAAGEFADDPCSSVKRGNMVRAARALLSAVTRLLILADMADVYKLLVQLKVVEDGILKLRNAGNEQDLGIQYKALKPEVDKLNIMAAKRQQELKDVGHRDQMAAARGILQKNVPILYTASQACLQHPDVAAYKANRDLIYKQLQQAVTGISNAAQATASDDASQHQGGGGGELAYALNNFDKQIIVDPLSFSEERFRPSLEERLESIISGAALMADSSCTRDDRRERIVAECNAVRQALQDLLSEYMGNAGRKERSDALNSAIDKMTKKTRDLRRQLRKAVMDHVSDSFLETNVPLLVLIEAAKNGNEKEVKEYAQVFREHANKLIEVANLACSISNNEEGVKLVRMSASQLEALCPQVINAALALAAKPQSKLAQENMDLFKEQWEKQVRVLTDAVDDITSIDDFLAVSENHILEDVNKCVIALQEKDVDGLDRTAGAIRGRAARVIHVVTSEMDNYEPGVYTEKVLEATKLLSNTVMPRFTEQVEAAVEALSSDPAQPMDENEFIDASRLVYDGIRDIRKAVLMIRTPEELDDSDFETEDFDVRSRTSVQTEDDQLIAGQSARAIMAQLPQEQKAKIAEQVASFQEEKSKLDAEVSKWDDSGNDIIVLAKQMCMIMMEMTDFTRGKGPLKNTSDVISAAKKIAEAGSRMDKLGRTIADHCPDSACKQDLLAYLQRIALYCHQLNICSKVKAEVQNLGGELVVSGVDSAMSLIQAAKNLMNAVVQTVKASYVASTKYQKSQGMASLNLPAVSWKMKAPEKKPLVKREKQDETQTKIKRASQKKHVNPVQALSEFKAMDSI
The experiment can be described thus: GST pull-down (in vitro reconstitution of cadherin complex), blot quantification. As to conditions: chain shown with the change;; parent: est. 1.0; read off a plot.

B1: GST–β-catenin WT, P35222 S675D (protein)
chain: MATQADLMELDMAMEPDRKAAVSHWQQQSYLDSGIHSGATTTAPSLSGKGNPEEEDVDTSQVLYEWEQGFSQSFTQEQVADIDGQYAMTRAQRVRAAMFPETLDEGMQIPSTQFDAAHPTNVQRLAEPSQMLKHAVVNLINYQDDAELATRAIPELTKLLNDEDQVVVNKAAVMVHQLSKKEASRHAIMRSPQMVSAIVRTMQNTNDVETARCTAGTLHNLSHHREGLLAIFKSGGIPALVKMLGSPVDSVLFYAITTLHNLLLHQEGAKMAVRLAGGLQKMVALLNKTNVKFLAITTDCLQILAYGNQESKLIILASGGPQALVNIMRTYTYEKLLWTTSRVLKVLSVCSSNKPAIVEAGGMQALGLHLTDPSQRLVQNCLWTLRNLSDAATKQEGMEGLLGTLVQLLGSDDINVVTCAAGILSNLTCNNYKNKMMVCQVGGIEALVRTVLRAGDREDITEPAICALRHLTSRHQEAEMAQNAVRLHYGLPVVVKLLHPPSHWPLIKATVGLIRNLALCPANHAPLREQGAIPRLVQLLVRAHQDTQRRTSMGGTQQQFVEGVRMEEIVEGCTGALHILARDVHNRIVIRGLNTIPLFVQLLYSPIENIQRVAAGVLCELAQDKEAAEAIEAEGATAPLTELLHSRNEGVATYAAAVLFRMSEDKPQDYKKRLDVELTSSLFRTEPMAWNETADLGLDIGAQGEPLGYRQDDPSYRSFHSGGYGQDALGMDPMMEHEMGGHHPGADYPVDGLPDLGHAQDLMDGLPPGDSNQLAWFDTDL
For B1, the ratio to parent stood at 1.1 fold change.
